Assay results from patent publication US11618906B2, “Hydroxylation techniques” (HYPHA DISCOVERY LTD., priority 2018, dated 2023).

B1: aluC09M24: cytochrome P450 aluC09 double mutant T291E, A47I; amino acid sequence SEQ ID NO: 84 (protein, listed as Amycolatopsis lurida)
chain: MTDVEETTATLPLARKCPFSPPPEYERLRRESPVSRVGLPSGQTAWILTRLEDIREMLSSPHFSSDRQSPSFPLMVARQIRREDKPFRPSLIAMDPPEHSRARRDVVGEFTVKRMKALQPRIQQIVDEHLDALLAGPKPADLVQALSLPVPSLVICELLGVPYSDHEFFQSCSSRMLSREVTAEERMTAFEQLENYLDELVTKKEANATEDDLLGRQILKQRETGEADHGELVGLAFLLLIAGHETTANMISLGTVTLLENPDQLAKIKADPGKTLAAIEELLRVFTIAEEATSRFATADVEIGGTLIRAGEGVVGLSNAGNHDPDGFENPDTFDIERGARHHVAFGFGVHQCLGQNLARLELQIVFDTLFRRVPGLRIAVPVDELPFKHDSTIYGLHALPVTW
B2: aluC09M18: cytochrome P450 aluC09 mutant T291Q; amino acid sequence SEQ ID NO: 20 (protein, listed as Amycolatopsis lurida)
chain: MTDVEETTATLPLARKCPFSPPPEYERLRRESPVSRVGLPSGQTAWALTRLEDIREMLSSPHFSSDRQSPSFPLMVARQIRREDKPFRPSLIAMDPPEHSRARRDVVGEFTVKRMKALQPRIQQIVDEHLDALLAGPKPADLVQALSLPVPSLVICELLGVPYSDHEFFQSCSSRMLSREVTAEERMTAFEQLENYLDELVTKKEANATEDDLLGRQILKQRETGEADHGELVGLAFLLLIAGHETTANMISLGTVTLLENPDQLAKIKADPGKTLAAIEELLRVFTIAEQATSRFATADVEIGGTLIRAGEGVVGLSNAGNHDPDGFENPDTFDIERGARHHVAFGFGVHQCLGQNLARLELQIVFDTLFRRVPGLRIAVPVDELPFKHDSTIYGLHALPVTW
B3: aluC09M30: cytochrome P450 aluC09 double mutant T291E, V315L; amino acid sequence SEQ ID NO: 108 (protein, listed as Amycolatopsis lurida)
chain: MTDVEETTATLPLARKCPFSPPPEYERLRRESPVSRVGLPSGQTAWALTRLEDIREMLSSPHFSSDRQSPSFPLMVARQIRREDKPFRPSLIAMDPPEHSRARRDVVGEFTVKRMKALQPRIQQIVDEHLDALLAGPKPADLVQALSLPVPSLVICELLGVPYSDHEFFQSCSSRMLSREVTAEERMTAFEQLENYLDELVTKKEANATEDDLLGRQILKQRETGEADHGELVGLAFLLLIAGHETTANMISLGTVTLLENPDQLAKIKADPGKTLAAIEELLRVFTIAEEATSRFATADVEIGGTLIRAGEGVLGLSNAGNHDPDGFENPDTFDIERGARHHVAFGFGVHQCLGQNLARLELQIVFDTLFRRVPGLRIAVPVDELPFKHDSTIYGLHALPVTW
B4: aluC09M21: cytochrome P450 aluC09 mutant T291Y; amino acid sequence SEQ ID NO: 32 (protein, listed as Amycolatopsis lurida)
chain: MTDVEETTATLPLARKCPFSPPPEYERLRRESPVSRVGLPSGQTAWALTRLEDIREMLSSPHFSSDRQSPSFPLMVARQIRREDKPFRPSLIAMDPPEHSRARRDVVGEFTVKRMKALQPRIQQIVDEHLDALLAGPKPADLVQALSLPVPSLVICELLGVPYSDHEFFQSCSSRMLSREVTAEERMTAFEQLENYLDELVTKKEANATEDDLLGRQILKQRETGEADHGELVGLAFLLLIAGHETTANMISLGTVTLLENPDQLAKIKADPGKTLAAIEELLRVFTIAEYATSRFATADVEIGGTLIRAGEGVVGLSNAGNHDPDGFENPDTFDIERGARHHVAFGFGVHQCLGQNLARLELQIVFDTLFRRVPGLRIAVPVDELPFKHDSTIYGLHALPVTW

Key:
Format in all cases: biochemical
[1] = O-demethylation of indomethacin catalysed by cytochrome P450 aluC09 and mutants; conditions: % by UV peak area at 275 nm; 0.125 mg/ml substrate, 27° C., 16-20 hours
Procedure: (§1) Lyophilised material of mutants of CYP450aluC09, ferredoxinaluF03 and ferredoxin reductaseSCF15A was made as described in examples 3 and 4 and suspended in water (0.5 mL per vial) and biocatalysis was performed at 27° C. in the following conditions: 50 mM potassium phosphate pH 7.4, 5 mM MgCl2, 0.125 mg/ml substrate compound such as diclofenac (Sigma-Aldrich, UK), Aceclofenac (Tokyo Chemical Industry UK Ltd, UK), Indomethacin (Sigma-Aldrich, UK), Flufenamic acid (Sigma-Aldrich, UK), Napropamide (Sigma-Aldrich, UK), celecoxib (LC Laboratories, USA), valsartan (Tokyo Chemical Industry UK Ltd, UK), ruxolitinib (LC Laboratories, USA), 4-pyrrolidylacetophenone (Sigma-Aldrich, UK), tofacitinib (LC Laboratories, USA), bosentan (CarboSynth Ltd, UK), buparvaquone (MedChemtronica, Sweden), BIRB796 (Stratech Scientific Limited, UK), epothilone B (LC Laboratories, USA), ritonavir (Tokyo Chemical Industry UK Ltd, UK) or tivantinib (MedChemtronica, Sweden), P450AluC09 (concentration as in Table 8), 5 mM G6P, 1 mM NADP, 2 UN/ml G6PDH in a final volume of 100 μL. After 16-20 hours at 200 rpm (5 cm orbital shaker, Kuhner AG, Switzerland), reactions were extracted with an equal volume of acetonitrile, centrifuged to remove precipitated proteins and conversion assessed by UPLC-MS analysis.
(§2) UPLC data was obtained as follows:
(§3) Column: Acquity UPLC BEH Shield RP18 1.7 μm 2.1 mm i.d. 50 mm length
(§4) Solvents: H2O, B: Acetonitrile, both with 0.1% Formic acid
(§5) Detector: Waters Acquity UPLC PDA (UV-Vis detection) and Waters Acquity UPLC QDA (MS)

[2] = Hydroxylation of aceclofenac catalysed by cytochrome P450 aluC09 and mutants; conditions: for Aceclofenac (Substrate) (1.80 mins) / Dihydroxy-Aceclofenac (1.42 mins) / Hydroxy-Aceclofenac (1) (1.64 min) / Hydroxy-Aceclofenac (2) (1.60 min): % by UV peak area at 275 nm, 0.125 mg/ml substrate, 27° C., 16-20 hours; for Hydroxylated Ratio 2:1: aceclofenac, ratio of UV peak areas at 275 nm
Procedure: as §1, §2, §3, §4, §5
Chromatograms are provided in FIGS. 5a-c; aceclofenac elutes at 1.80 minutes, hydroxy-aceclofenac acid 1 elutes at 1.64 minutes, hydroxy-aceclofenac acid 2 elutes at 1.60 minutes and dihydroxy-aceclofenac elutes at 1.42 minutes.

[3] = Metabolism of bosentan by P450 aluC09 and mutants; conditions: percent of substrate being converted; 0.125 mg/ml, 27° C., 16-20 hours; [CYP] per enzyme as in Table 8
Procedure: as §1
(§6) However, of particular note when considering P450 concentration are the results for mutants M12, M20 and M34, as well as the deleterious impact on the range of substrate utility in mutants M39 and M40.

[4] = Metabolism of ruxolitinib by P450 aluC09 and mutants; conditions: percent of substrate being converted; 0.125 mg/ml, 27° C., 16-20 hours; [CYP] per enzyme as in Table 8
Procedure: as §1, §6

[5] = Metabolism of ritonavir by P450 aluC09 and mutants; conditions: percent of substrate being converted; 0.125 mg/ml, 27° C., 16-20 hours; [CYP] per enzyme as in Table 8
Procedure: as §1, §6

[6] = Metabolism of valsartan by P450 aluC09 and mutants; conditions: percent of substrate being converted; 0.125 mg/ml, 27° C., 16-20 hours; [CYP] per enzyme as in Table 8
Procedure: as §1, §6

[7] = Metabolism of epothilone B by P450 aluC09 and mutants; conditions: percent of substrate being converted; 0.125 mg/ml, 27° C., 16-20 hours; [CYP] per enzyme as in Table 8
Procedure: as §1, §6

[8] = Metabolism of tofacitinib by P450 aluC09 and mutants; conditions: percent of substrate being converted; 0.125 mg/ml, 27° C., 16-20 hours; [CYP] per enzyme as in Table 8
Procedure: as §1, §6

[9] = Metabolism of BIRB796 by P450 aluC09 and mutants; conditions: percent of substrate being converted; 0.125 mg/ml, 27° C., 16-20 hours; [CYP] per enzyme as in Table 8
Procedure: as §1, §6

[10] = Metabolism of 4-pyrrolidylacetophenone by P450 aluC09 and mutants; conditions: percent of substrate being converted; 0.125 mg/ml, 27° C., 16-20 hours; [CYP] per enzyme as in Table 8
Procedure: as §1, §6

[11] = Hydroxylation of diclofenac catalysed by cytochrome P450 aluC09 and mutants (UPLC-PDA-MS); conditions: for 4′,5-dihydroxy-diclofenac 1.38 mins / 4′-hydroxy-diclofenac (1) 1.62 mins / 5-hydroxy-diclofenac (2) 1.58 mins / Diclofenac (Substrate) 1.81 mins: % by UV peak area at 275 nm, 0.125 mg/ml substrate, 27° C., 16-20 hours; for Hydroxylated Ratio hydroxy 1:hydroxy 2: ratio of UV peak areas at 275nm
Procedure: as §1, §2, §3, §4, §5
Illustrative results for the hydroxylation of diclofenac by CYP450aluC09 and selected T291x mutants are summarised below in Table 3 with representative chromatograms resented in FIG. 3a-c; retention times: diclofenac 1.85-1.88 minutes, 5-hydroxydiclofenac 1.60-1.63 minutes, 4′-hydroxydiclofenac 1.65-1.68 minutes, 4′,5-dihydroxydiclofenac 1.40-1.42 minutes. The chromatographic retention times and mass spectra coincided with those of authentic samples.

[12] = Metabolism of celecoxib by P450 aluC09 and mutants; conditions: percent of substrate being converted; 0.125 mg/ml, 27° C., 16-20 hours; [CYP] per enzyme as in Table 8
Procedure: as §1, §6

[13] = Hydroxylation of flufenamic acid catalysed by cytochrome P450 aluC09 and mutants; conditions: for Flufenamic Acid (Substrate) 1.93 mins / Hydroxy-Flufenamic Acid (1) 1.69 mins / Hydroxy-Flufenamic Acid (2) 1.65 mins: % by UV peak area at 275 nm, 0.125 mg/ml substrate, 27° C., 16-20 hours; for Hydroxylated Ratio 1:2: flufenamic acid, ratio of UV peak areas at 275 nm
Procedure: as §1, §2, §3, §4, §5
Flufenamic acid elutes at 1.93 minutes, hydroxy-flufenamic acid 1 elutes at 1.68 minutes and hydroxy-flufenamic acid 2 elutes at 1.65 minutes.

[14] = Metabolism of tivantinib by P450 aluC09 and mutants; conditions: percent of substrate being converted; 0.125 mg/ml, 27° C., 16-20 hours; [CYP] per enzyme as in Table 8
Procedure: as §1, §6

[15] = Hydroxylation / de-N-ethylation of napropamide catalysed by cytochrome P450 aluC09 and mutants
Procedure: as §1, §2, §3, §4, §5
Napropamide elutes at 1.76 minutes, unidentified metabolite (−2 Da) elutes at 1.90 minutes, desethyl-napropamide elutes at 1.62 minutes, hydroxy-napropamide 1 elutes at 1.53 minutes and hydroxy-napropamide 2 elutes at 1.52 minutes and the desethyl-hydroxy-napropamide product elutes at 1.41 minutes.

[16] = % by UV peak area at 275 nm, 0.125 mg/ml substrate, 27° C., 16-20 hours

Molecule | Indomethacin (1.74 mins) [1] [%] | O-demethyl-Indomethacin (1.52 mins) [1] [%] | Aceclofenac (Substrate) (1.80 mins) [2] [%] | Dihydroxy-Aceclofenac (1.42 mins) [2] [%] | Hydroxy-Aceclofenac (1) (1.64 min) [2] [%] | Hydroxy-Aceclofenac (2) (1.60 min) [2] [%] | Hydroxylated Ratio 2:1 [2] | % conversions (avg) Bosentan [3] [%] | % conversions (avg) Ruxolitinib [4] [%] | % conversions (avg) Ritonavir [5] [%] | % conversions (avg) Valsartan [6] [%] | % conversions (avg) Epothilone B [7] [%] | % conversions (avg) Tofacitinib [8] [%] | % conversions (avg) BIRB796 [9] [%] | % conversions (avg) 4-pyrrolidylacetophenone [10] [%] | 4′,5-dihydroxy-diclofenac 1.38 mins [11] [%] | 4′-hydroxy-diclofenac (1) 1.62 mins [11] [%] | 5-hydroxy-diclofenac (2) 1.58 mins [11] [%] | % conversions (avg) Celecoxib [12] [%] | % conversions (avg) Tivantinib [14] [%] | further results
B1 | 94.2 | 5.8 | 63.4 | 5.0 | 14.3 | 17.4 | 1.2 | 100 | 37.7 | 30.4 | 21.2 | 52.3 | 0 | 18.9 | 7.6 | 1.8 | 34.2 | 8.0 | 3.6 | 6.8 | Diclofenac (Substrate) 1.81 mins [11]: 57.0%; regioselectivity of hydroxylation (product ratio 4′-hydroxydiclofenac : 5-hydroxydiclofenac) ([11]; diclofenac): over four-fold; Hydroxylated Ratio hydroxy 1:hydroxy 2 ([11]; diclofenac): 4.3; Flufenamic Acid (Substrate) 1.93 mins [13]: 89.2%; Hydroxy-Flufenamic Acid (1) 1.69 mins [13]: 7.7%; Hydroxy-Flufenamic Acid (2) 1.65 mins [13]: 3.1%; Hydroxylated Ratio 1:2 [13]: 2.5
B2 | 83.6 | 16.4 | 10.2 | 49.1 | 5.9 | 34.9 | 5.9 | 100 | 38.5 | 53.3 | 27.1 | 24.8 | 2.2 | 24.3 | 14.1 | 1.9 | 45.5 | 12.3 | 3.7 | 59.7 | Desethyl Napropamide (1.62 min) [15, 16]: 49.5%; Desethyl-hydroxy-Napropamide (1.41 min) [15, 16]: 4.1%; Hydroxy-Napropamide (1) (1.53 min) [15, 16]: 1.4%; Hydroxy-Napropamide (2), (1.52 min) [15, 16]: 2.5%; M-2Da (unidentified) (1.89 min) [15, 16]: 5.7%; Napropamide (substrate) [15, 16]: 38.3%; Hydroxylated Ratio 2:1 ([15]; napropamide, ratio of UV peak areas): 1.8; Diclofenac (Substrate) 1.81 mins [11]: 41.6%; Hydroxylated Ratio hydroxy 1:hydroxy 2 ([11]; diclofenac): 3.7; Flufenamic Acid (Substrate) 1.93 mins [13]: 86.1%; Hydroxy-Flufenamic Acid (1) 1.69 mins [13]: 9.1%; Hydroxy-Flufenamic Acid (2) 1.65 mins [13]: 4.8%; Hydroxylated Ratio 1:2 [13]: 1.9
B3 | 90.1 | 9.9 | 24.1 | 18.4 | 15.0 | 42.5 | 2.8 | 80.4 | 37.5 | 20.9 | 20 | 32.2 | 0 | 18 | 16.6 | 3.6 | 43.4 | 13.0 | 3.9 | 2.7 | Diclofenac (Substrate) 1.81 mins [11]: 41.6%; Hydroxylated Ratio hydroxy 1:hydroxy 2 ([11]; diclofenac): 3.3; Flufenamic Acid (Substrate) 1.93 mins [13]: 93.8%; Hydroxy-Flufenamic Acid (1) 1.69 mins [13]: 3.7%; Hydroxy-Flufenamic Acid (2) 1.65 mins [13]: 2.4%; Hydroxylated Ratio 1:2 [13]: 1.5
B4 |  |  |  |  |  |  |  | 59 | 19 | 28.2 | 19 | 33.8 | 2.7 |  | 15.8 |  |  |  | 1 | 29.6 | 
